Reference: patent US20260265379A1 (IMCHECK THERAPEUTICS, published 2026)

Key:
[1] = target: T1, PD-L1 at the surface of transduced cells (UniProt Q9NZQ7 19-290, limits assumed); experiment: cell-based or functional assay
[2] = target: T2, BTN3A1 at the surface of HEK-BTN3A1 cells (human, UniProt O00481 30-513); experiment: flow cytometry, HEK-BTN3A1 cells
T2 construct: HEK 293T BTN2A/BTN3A KO cells transduced with a BTN3A1 expressing vector

recombinant human BTN3A1 = target: T3, recombinant human BTN3A1 (human, UniProt O00481 30-254); experiment: SPR
T3 construct: Soluble form of the antigen used in SPR; also called rhBTN3A1; recombinant BTN3A1 protein
T3 sequence (O00481 30-254 limits assumed): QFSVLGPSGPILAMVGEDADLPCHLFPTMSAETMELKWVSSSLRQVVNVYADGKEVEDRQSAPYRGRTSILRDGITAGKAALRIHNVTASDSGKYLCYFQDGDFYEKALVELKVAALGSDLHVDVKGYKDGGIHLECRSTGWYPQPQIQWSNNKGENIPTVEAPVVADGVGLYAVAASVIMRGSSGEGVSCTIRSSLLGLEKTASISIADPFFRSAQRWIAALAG

recombinant human PD-L1 = target: T4, recombinant human PD-L1 (human, UniProt Q9NZQ7 19-239, limits assumed); experiment: SPR
T4 construct: Soluble antigen in SPR; also called rhPD-L1
T4 sequence (Q9NZQ7 19-239 limits assumed): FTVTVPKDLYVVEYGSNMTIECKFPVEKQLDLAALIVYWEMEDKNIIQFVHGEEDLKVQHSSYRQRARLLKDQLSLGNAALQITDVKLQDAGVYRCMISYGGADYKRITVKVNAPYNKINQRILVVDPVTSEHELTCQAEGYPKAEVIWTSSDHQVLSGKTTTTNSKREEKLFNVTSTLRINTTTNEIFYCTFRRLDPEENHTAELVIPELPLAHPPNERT

[3] = target: T1, PD-L1 at the surface of transduced cells; experiment: flow cytometry, CHO-PD-L1 cells

T1 sequence (Q9NZQ7 19-290 limits assumed): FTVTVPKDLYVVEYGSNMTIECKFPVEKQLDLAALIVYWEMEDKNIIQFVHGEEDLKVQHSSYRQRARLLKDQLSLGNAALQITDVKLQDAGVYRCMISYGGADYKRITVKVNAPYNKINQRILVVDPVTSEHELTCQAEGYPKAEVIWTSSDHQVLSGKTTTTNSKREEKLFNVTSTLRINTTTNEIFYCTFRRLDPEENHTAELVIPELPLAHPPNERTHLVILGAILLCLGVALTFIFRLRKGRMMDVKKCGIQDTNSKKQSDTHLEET
T2 sequence (O00481 30-513 limits assumed): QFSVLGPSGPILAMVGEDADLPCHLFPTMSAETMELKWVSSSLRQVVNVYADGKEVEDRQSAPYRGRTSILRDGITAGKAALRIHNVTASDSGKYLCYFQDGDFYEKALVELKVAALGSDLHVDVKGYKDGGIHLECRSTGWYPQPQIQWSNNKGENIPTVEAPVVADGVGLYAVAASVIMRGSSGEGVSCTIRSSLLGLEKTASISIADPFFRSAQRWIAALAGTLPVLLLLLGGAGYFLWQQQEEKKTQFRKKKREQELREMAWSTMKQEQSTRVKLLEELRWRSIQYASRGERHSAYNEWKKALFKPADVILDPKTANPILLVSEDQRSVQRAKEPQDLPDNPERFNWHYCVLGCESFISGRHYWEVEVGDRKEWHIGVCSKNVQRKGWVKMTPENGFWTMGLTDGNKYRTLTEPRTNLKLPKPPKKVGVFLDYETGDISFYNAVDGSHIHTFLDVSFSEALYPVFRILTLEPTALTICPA

| Binder | Jurkat-PD-1 activation at 10 nM [1] | Jurkat-PD-1 activation at 100 nM [1] | MFI at 10 nM [2] [MFI] | MFI at 100 nM [2] [MFI] | Kd (recombinant human BTN3A1) [pM] | Kd (recombinant human PD-L1) [pM] | MFI at 10 nM [3] [MFI] | MFI at 100 nM [3] [MFI] |
| --- | --- | --- | --- | --- | --- | --- | --- | --- |
| bsAb011 (bispecific antibody, IgG anti-BTN3A, scFv anti-PD-L1) heavy: QVQLVQSGAEVKKPGASVKLSCKASGYIFTRYYMYWVKQRPGQGLEWIGEINPNNGGTKFNEKFKNRATLTVDKSISTAYMELSRLRSDDTAVYYCSREDDYDGTPFAMDYWGQGTLVTVSSASTKGPSVFPLAPSSKSTSGGTAALGCLVKDYFPEPVTVSWNSGALTSGVHTFPAVLQSSGLYSLSSVVTVPSSSLGTQTYICNVNHKPSNTKVDKRVEPKSCDKTHTCPPCPAPEFEGGPSVFLFPPKPKDTLMISRTPEVTCVVVDVSHEDPEVKFNWYVDGVEVHNAKTKPREEQYNSTYRVVSVLTVLHQDWLNGKEYKCKVSNKALPASIEKTISKAKGQPREPQVYTLPPSREEMTKNQVSLTCLVKGFYPSDIAVEWESNGQPENNYKTTPPVLDSDGSFFLYSKLTVDKSRWQQGNVFSCSVMHEALHNHYTQKSLSLSPG light: not shown | 6.4 fold-change to medium | 2.3 fold-change to medium | 512000 | 1.14e+06 | 504 | 43 | 682000 | 722000 |
| bsAb041 (bispecific antibody, one Fab arm anti-PD-L1, two scFv anti-BTN3A; not shown: IgG1 CH1-hinge-CH2-CH3; CH2-CH3 (Fc)) heavy (part 1 of 2): EVQLVESGGGLVQPGGSLRLSCAASGFTFSRYWMSWVRQAPGKGLEWVANIKQDGSEKYYVDSVKGRFTISRDNAKNSLYLQMNSLRAEDTAVYYCAREGGWFGELAFDYWGQGTLVTVSS heavy (part 2 of 2): GGGGSGGGGSGGGGSGGGGSDIQMTQSPSSLSASVGDRVTITCHASQNINVWLSWYQQKPGKAPKLLIYKASNLHTGVPSRFTGSGSGTDFTFTISSLQPEDIATYYCQQGQTYPYTFGQGTKLEIKGGGGSGGGGSGGGGSGGGGSQVQLVQSGAEVKKPGASVKLSCKASGYIFTRYYMYWVKQRPGQGLEWIGEINPNNGGTKFNEKFKNRATLTVDKSISTAYMELSRLRSDDTAVYYCSREDDYDGTPFAMDYWGQGTLVTVSS heavy: GGGGSGGGGSGGGGSGGGGSDIQMTQSPSSLSASVGDRVTITCHASQNINVWLSWYQQKPGKAPKLLIYKASNLHTGVPSRFTGSGSGTDFTFTISSLQPEDIATYYCQQGQTYPYTFGQGTKLEIKGGGGSGGGGSGGGGSGGGGSQVQLVQSGAEVKKPGASVKLSCKASGYIFTRYYMYWVKQRPGQGLEWIGEINPNNGGTKFNEKFKNRATLTVDKSISTAYMELSRLRSDDTAVYYCSREDDYDGTPFAMDYWGQGTLVTVSS light: EIVLTQSPGTLSLSPGERATLSCRASQRVSSSYLAWYQQKPGQAPRLLIYDASSRATGIPDRFSGSGSGTDFTLTISRLEPEDFAVYYCQQYGSLPWTFGQGTKVEIKRTVAAPSVFIFPPSDEQLKSGTASVVCLLNNFYPREAKVQWKVDNALQSGNSQESVTEQDSKDSTYSLSSTLTLSKADYEKHKVYACEVTHQGLSSPVTKSFNRGEC |  |  | 1.1e+06 | 1.67e+06 | 101 | 53 | 1.14e+06 | 1.3e+06 |
| bsAb070 (bispecific antibody, not shown: IgG1 CH1-hinge-CH2-CH3; CH2-CH3 (Fc)) heavy 1: EVQLVESGGGLVQPGGSLRLSCAASGFTFSRYWMSWVRQAPGKGLEWVANIKQDGSEKYYVDSVKGRFTISRDNAKNSLYLQMNSLRAEDTAVYYCAREGGWFGELAFDYWGQGTLVTVSS heavy 2: QVQLVQSGAEVKKPGASVKLSCKASGYIFTRYYMYWVKQRPGQGLEWIGEINPNNGGTKFNEKFKNRATLTVDKSISTAYMELSRLRSDDTAVYYCSREDDYDGTPFAMDYWGQGTLVTVSSGGGGSGGGGSGGGGSGGGGSDIQMTQSPSSLSASVGDRVTITCHASQNINVWLSWYQQKPGKAPKLLIYKASNLHTGVPSRFTGSGSGTDFTFTISSLQPEDIATYYCQQGQTYPYTFGQGTKLEIKGGGGSGGGGSGGGGSGGGGS light: EIVLTQSPGTLSLSPGERATLSCRASQRVSSSYLAWYQQKPGQAPRLLIYDASSRATGIPDRFSGSGSGTDFTLTISRLEPEDFAVYYCQQYGSLPWTFGQGTKVEIKRTVAAPSVFIFPPSDEQLKSGTASVVCLLNNFYPREAKVQWKVDNALQSGNSQESVTEQDSKDSTYSLSSTLTLSKADYEKHKVYACEVTHQGLSSPVTKSFNRGECGGGGSGGGGSGGGGSGGGGSDIQMTQSPSSLSASVGDRVTITCHASQNINVWLSWYQQKPGKAPKLLIYKASNLHTGVPSRFTGSGSGTDFTFTISSLQPEDIATYYCQQGQTYPYTFGQGTKLEIKGGGGSGGGGSGGGGSGGGGSQVQLVQSGAEVKKPGASVKLSCKASGYIFTRYYMYWVKQRPGQGLEWIGEINPNNGGTKFNEKFKNRATLTVDKSISTAYMELSRLRSDDTAVYYCSREDDYDGTPFAMDYWGQGTLVTVSS |  |  | 790000 | 1e+06 | 74 | 79 | 1.05e+06 | 1.2e+06 |
| bsAb069 (bispecific antibody, not shown: IgG1 CH1-hinge-CH2-CH3; CH2-CH3 (Fc)) heavy 1: EVQLVESGGGLVQPGGSLRLSCAASGFTFSRYWMSWVRQAPGKGLEWVANIKQDGSEKYYVDSVKGRFTISRDNAKNSLYLQMNSLRAEDTAVYYCAREGGWFGELAFDYWGQGTLVTVSS heavy 2: DIQMTQSPSSLSASVGDRVTITCHASQNINVWLSWYQQKPGKAPKLLIYKASNLHTGVPSRFTGSGSGTDFTFTISSLQPEDIATYYCQQGQTYPYTFGQGTKLEIKGGGGSGGGGSGGGGSGGGGSQVQLVQSGAEVKKPGASVKLSCKASGYIFTRYYMYWVKQRPGQGLEWIGEINPNNGGTKFNEKFKNRATLTVDKSISTAYMELSRLRSDDTAVYYCSREDDYDGTPFAMDYWGQGTLVTVSSGGGGSGGGGSGGGGSGGGGS light: EIVLTQSPGTLSLSPGERATLSCRASQRVSSSYLAWYQQKPGQAPRLLIYDASSRATGIPDRFSGSGSGTDFTLTISRLEPEDFAVYYCQQYGSLPWTFGQGTKVEIKRTVAAPSVFIFPPSDEQLKSGTASVVCLLNNFYPREAKVQWKVDNALQSGNSQESVTEQDSKDSTYSLSSTLTLSKADYEKHKVYACEVTHQGLSSPVTKSFNRGECGGGGSGGGGSGGGGSGGGGSQVQLVQSGAEVKKPGASVKLSCKASGYIFTRYYMYWVKQRPGQGLEWIGEINPNNGGTKFNEKFKNRATLTVDKSISTAYMELSRLRSDDTAVYYCSREDDYDGTPFAMDYWGQGTLVTVSSGGGGSGGGGSGGGGSGGGGSDIQMTQSPSSLSASVGDRVTITCHASQNINVWLSWYQQKPGKAPKLLIYKASNLHTGVPSRFTGSGSGTDFTFTISSLQPEDIATYYCQQGQTYPYTFGQGTKLEIK |  |  | 635000 | 1.18e+06 | 100 | 76 | 1.02e+06 | 1.16e+06 |
| bsAb054 (bispecific antibody, IgG anti-PD-L1, one scFv anti-BTN3A; not shown: IgG1 CH1-hinge-CH2-CH3) heavy (part 1 of 2): EVQLVESGGGLVQPGGSLRLSCAASGFTFSRYWMSWVRQAPGKGLEWVANIKQDGSEKYYVDSVKGRFTISRDNAKNSLYLQMNSLRAEDTAVYYCAREGGWFGELAFDYWGQGTLVTVSS heavy (part 2 of 2): GGGGSGGGGSGGGGSGGGGSQVQLVQSGAEVKKPGASVKLSCKASGYIFTRYYMYWVKQRPGQGLEWIGEINPNNGGTKFNEKFKNRATLTVDKSISTAYMELSRLRSDDTAVYYCSREDDYDGTPFAMDYWGQGTLVTVSSGGGGSGGGGSGGGGSGGGGSDIQMTQSPSSLSASVGDRVTITCHASQNINVWLSWYQQKPGKAPKLLIYKASNLHTGVPSRFTGSGSGTDFTFTISSLQPEDIATYYCQQGQTYPYTFGQGTKLEIK heavy: EVQLVESGGGLVQPGGSLRLSCAASGFTFSRYWMSWVRQAPGKGLEWVANIKQDGSEKYYVDSVKGRFTISRDNAKNSLYLQMNSLRAEDTAVYYCAREGGWFGELAFDYWGQGTLVTVSS light: EIVLTQSPGTLSLSPGERATLSCRASQRVSSSYLAWYQQKPGQAPRLLIYDASSRATGIPDRFSGSGSGTDFTLTISRLEPEDFAVYYCQQYGSLPWTFGQGTKVEIKRTVAAPSVFIFPPSDEQLKSGTASVVCLLNNFYPREAKVQWKVDNALQSGNSQESVTEQDSKDSTYSLSSTLTLSKADYEKHKVYACEVTHQGLSSPVTKSFNRGEC |  |  | 424000 | 1.06e+06 | 126 | 33 | 664000 | 690000 |
| bsAb035 (bispecific antibody, IgG anti-BTN3A, one scFv anti-PD-L1; not shown: IgG1 CH1-hinge-CH2-CH3) heavy (part 1 of 2): QVQLVQSGAEVKKPGASVKLSCKASGYIFTRYYMYWVKQRPGQGLEWIGEINPNNGGTKFNEKFKNRATLTVDKSISTAYMELSRLRSDDTAVYYCSREDDYDGTPFAMDYWGQGTLVTVSS heavy (part 2 of 2): GGGGSGGGGSGGGGSGGGGSEVQLVESGGGLVQPGGSLRLSCAASGFTFSRYWMSWVRQAPGKGLEWVANIKQDGSEKYYVDSVKGRFTISRDNAKNSLYLQMNSLRAEDTAVYYCAREGGWFGELAFDYWGQGTLVTVSSGGGGSGGGGSGGGGSGGGGSEIVLTQSPGTLSLSPGERATLSCRASQRVSSSYLAWYQQKPGQAPRLLIYDASSRATGIPDRFSGSGSGTDFTLTISRLEPEDFAVYYCQQYGSLPWTFGQGTKVEIK heavy: QVQLVQSGAEVKKPGASVKLSCKASGYIFTRYYMYWVKQRPGQGLEWIGEINPNNGGTKFNEKFKNRATLTVDKSISTAYMELSRLRSDDTAVYYCSREDDYDGTPFAMDYWGQGTLVTVSS light: not shown | 5 fold-change to medium | 7.9 fold-change to medium | 525000 | 1.03e+06 | 68 | 97 | 973000 | 1.28e+06 |
| bsAb040 (bispecific antibody, IgG anti-BTN3A, one scFv anti-PD-L1; not shown: IgG1 CH1-hinge-CH2-CH3) heavy (part 1 of 2): QVQLVQSGAEVKKPGASVKLSCKASGYIFTRYYMYWVKQRPGQGLEWIGEINPNNGGTKFNEKFKNRATLTVDKSISTAYMELSRLRSDDTAVYYCSREDDYDGTPFAMDYWGQGTLVTVSS heavy (part 2 of 2): GGGGSGGGGSGGGGSGGGGSEIVLTQSPGTLSLSPGERATLSCRASQRVSSSYLAWYQQKPGQAPRLLIYDASSRATGIPDRFSGSGSGTDFTLTISRLEPEDFAVYYCQQYGSLPWTFGQGTKVEIKGGGGSGGGGSGGGGSGGGGSEVQLVESGGGLVQPGGSLRLSCAASGFTFSRYWMSWVRQAPGKGLEWVANIKQDGSEKYYVDSVKGRFTISRDNAKNSLYLQMNSLRAEDTAVYYCAREGGWFGELAFDYWGQGTLVTVSS heavy: QVQLVQSGAEVKKPGASVKLSCKASGYIFTRYYMYWVKQRPGQGLEWIGEINPNNGGTKFNEKFKNRATLTVDKSISTAYMELSRLRSDDTAVYYCSREDDYDGTPFAMDYWGQGTLVTVSS light: not shown | 6 fold-change to medium | 7.5 fold-change to medium | 634000 | 1.23e+06 | 65 | 66 | 1.04e+06 | 1.25e+06 |
